# According to the nanobody polyreactivity screen of Harvey et al. (2022):
# Assay: yeast display, Sf9 membrane polyspecificity reagent, FACS + sequencing; frameworks hold sequencing errors
# Outline: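 Synthetic nanobody libraries on Saccharomyces cerevisiae BJ5465 were galactose-induced for 36–48 hours, stained 1 hour at 4 °C with 10% biotinylated, detergent-solubilized Sf9 membrane reagent and enriched on streptavidin microbeads. FACS then separated cells into low and high (top ~1%) gates by anti-HA (expression) and streptavidin (reagent binding) fluorescence. Genes were colony-PCR amplified, MiSeq 2 × 250 sequenced and CDR-length filtered. A clone's polyreactivity label is that of its gate of origin.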
row,Sequence,polyreactivity (PSR sort gate)
1,QVQLVESGGCLVQAGGSLRLSCAATGIIFDGYAMGWYRQAPGKERELVAAISWSGGSTYYADSVKGRFTISRDNAKNTVYLQMNSLKPEDTAVYYCAAALPGWYHDDYDYWGQGTQVTVSS,low polyreactivity
2,QVQLVESGGCLVQAGGSLRLSCAATGRIFKRYVMGWYRQAPGKERELVAAISQRGGSTNYADSVKGRFTISRDNAKNTVYLQMNSLKPEDTAVYYCAAGFFSRYDYWGQGTQVTVSS,high polyreactivity
3,QVQLVESGGCLVQAGGSLRLSCCASARTFWYYTMGWYRQAPGKERELVASISRVTSTYYADSVKGRLTSSRDNAKNTVYLQMNSLKPEDTAVYYCAGLQIRRSYWRTFYWGQGTQVTVSS,low polyreactivity
4,QVQLVESGGCLVQAGGSLRLSCYASGIIFAWYAMGWYRQAPGKERQLVAAISYSGCTTYYADSVKWRFTISRDNAKNTVYFKMNSLKPVDTAVYYCAALLHHFFTYDYWGQGTQVTVSS,low polyreactivity
5,QVQLVESGGCLVQAGGSLRLSCYASGSIFVDKAMGWFRQPPGKERELVAAITDSGGRTYYADSVKGRFTISRDNAKNTVYLQKNSLKPEDTAVYYCAAGQSGYAGRRPAFGSWGQGTQVTVSS,low polyreactivity
6,QVQLVESGGCLVQAGGSLRLSSAASGFIFSRYAMGWYRQATGKERELVASISWGGGSTSYADSVKGRFTISRDNAKYTVYLQMNSLKPEDTAVYYCNARVRSHRFNYWGQGTQVTVSS,high polyreactivity
7,QVQLVESGGCLVQAGGSLSLSCAASGSTFVAYAMGWYRQAPGKESELVAAISKSGVRTYYADYVKGRFTISRDNAKNTVYLQMNSLKPEDSAFYYCAALTYYSQVTSSVSLQQYGYWGQVTQVTVSS,low polyreactivity
8,QVQLVESGGCLVQAGVSLRLSCAASGRIFAYYAMGWYRQAPRKERELVAAISRSGVSTYYADSVKGRFTISRDNAKNTVYIQMNSLKPEDTAVYYCAARWRSGFTSGDYWGQGTQVTVSS,low polyreactivity
9,QVQLVESGGCLVQEGGSLRLSCAASGRIININAMGWSRHAPGKEREMVAAITWRSGSTYYADSVKGRFTISRDNAKNTVYLQLNSLKPEDTAVYFCAADFSQTRRPIRFYYWGQGTQVTVSS,high polyreactivity
10,QVQLVESGGDLVQAGGSLRLSCAASGGIFQKYVMGWYRQAPGKERELVARITSVGSTYYADSVKGRFTISRDNAKNTVYLQMNSLKPVDTAVYYCNAELYRRSQGYRFTAFDYWGQGTQVTVSS,low polyreactivity
11,QVQLVESGGDLVQAGGSLRLSCAASGYTFIVKAMGWYRQAPGKERELVAGISYRGGRTFYADSVKGRFTISRDNAKNNVYLQMNSLKPEDTAVYYCAARKTGIPFYNYDYWGQGTQVTVSS,low polyreactivity
12,QVQLVESGGGEVQAGGSLRLSCAASGIIFVDYVLGWYRQAPGTEMELVASIDGSGGSTNDADSVKGRFTISRDNAKNTVYLQLNRLKPEDTAVYYCTADNILYWSTLDYWGQGTHVTVSS,low polyreactivity
13,QVQLVESGGGFGQAGGSLRLSCAASGLIFRWYAMGWYRQAPGKERELVAAISWSGASTYYADSVKGRFTISRDNAKNTVYLQMNSLKPEDTAVYYCAADSAYWTYEYWGQGTQVTVSS,high polyreactivity
14,QVQLVESGGGFVQAGGSLRLSCAASGFIFWLNAMGWYRQAPGKERELVAASSIGGRTNYADSVKGRFTISRDNAKNTVYLQMNSLTPEDTAVYFCNNDYRSVYKGRGFDYWGQGTQVTVSS,low polyreactivity
15,QVQLVESGGGFVQAGGSLRLSCAASGFIFYMFAMGWYRQAPGKERELVAAITSRGGSTFYADSVKGRFTISRDNAKNTVYLQMNSLKPEDTAVYYCAAVRDLYTYRLGYWGQGTQVTVSS,high polyreactivity
16,QVQLVESGGGFVQAGGSLRLSCAASGFTFGYYTMGWYRQAPGKERELVAAITYRGGRTYYADSVKGRFTISRDNAKNTVYLQLNSLKPEATAVYYGAARLLGKTGRTDSGAEGDYWGQGTQVTVSS,high polyreactivity
17,QVQLVESGGGFVQAGGSLRLSCAASGFTFYKYAMGWYRQAPGQERELVAAITRGGGSTYYADSVKGRFTISRDHAQNPVYLQKNRLIPEDPAVYYCNVLYGYGTDVSRVDYWGQGTQVTVSS,high polyreactivity
18,QVQLVESGGGFVQAGGSLRLSCAASGITFYSNAMGWYRQAPGKERELGAAISTTGGRTYYADSVKRRFTISRDNAKNTVYLHMNSLKPEDTAVYYCTKAWGRGSLTEPYDYWGQGTQVTVSS,high polyreactivity
19,QVQLVESGGGFVQAGGSLRLSCAASGRICGYYAMGWFRQAPGKERELVAAISSSGGSTYYADSVKGRFTISRDTAKNTVYLQINSQKPEYTAVYYCNVDWYDNGYGGYDYWRQGTQVTVSS,low polyreactivity
20,QVQLVESGGGFVQAGGSLRLSCAASGRIFGPYAMGWYRQAPGKERELVAVITNSGSTNYADSVKGRFTISRDNAKNTVYLQMNSLKPEDTAVYYCNRVEGGAYGSNFDYWGQVTQVTVSS,high polyreactivity
21,QVQLVESGGGFVQAGGSLRLSCAASGRIFKWYAMGWYIQAPGKERELVAAITSGGSTYYADSVKGRFTISRDNAKNTVYLQMNSLKPEDTAVYYCNTALTRWYNQYDYWGQGTLVTVSS,high polyreactivity
22,QVQLVESGGGFVQAGGSLRLSCAASGRIFRTNAMGWYRQAPGKERELVAAITSSGTRTYYADSVKGRFTISRDNAKNTVYLQMNSLKPEDTAVYYCAAGGGHSMYYWGQGTQVTVSS,high polyreactivity

row,Sequence,polyreactivity (PSR sort gate)
1,QVQLVESGGGFVQAGGSLRLSCAASGRTIPYYAMGWYRQARGKEWELVATISTGDSTYYADSVKGRFTISRDNAKNTLYLQMNSLKPEATAVYSCAKDRYTYWSVHAFRRLDYWGKGTQVTVSS,low polyreactivity
2,QVQLVESGGGFVQAGGSLRLSCAASGSIFYLYAMGWYRQAPGKERELVAAITSIGGSTYADSVKGRFTISRDNAKYTVYLQMNSLKPEDTAVYYCATYVAYHRGYRTYDQWGQGTQVTVSS,low polyreactivity
3,QVQLVESGGGFVQAGGSLRLSCAASGSTCDGYSMGWYRQAPGKERELVAGISTSGGSTYYADSVKGRFTISRDNAKNTVYLQMNSLKPEDTAVYYCAAEWFDQVKDRAADYISYEYWGQGTQVTVSS,low polyreactivity
4,QVQLVESGGGFVQAGGSLRLSCAASGSTFDGYAMGWYRQAPGKERELVAAITSSDGSTYYADSVKGRFTISRDNAKNTVYLQMNSLKPEDTAGYSCAAAPDWKDSLPPDMDYWGQGTQVTVSS,low polyreactivity
5,QVQLVESGGGFVQAGGSLRLSCAASGSTFDYNTMGWYRQAPGKERELVAAISESGGSTYYADSVKGRFTISRDNAKNTVYLQMNSLKPEDTAVYYCAADTIGYHYWYDYWGQGTQVTVSS,low polyreactivity
6,QVQLVESGGGFVQAGGSLRLSCAASGSTFSYYAMGWYRQAPGKERELVAAINWRGTNTYYADSVKGRFTISRDNAKNTVYLQMNSLKPEDTAVYYCNKESYRSSSPYNYWGQGTQVTVSS,high polyreactivity
7,QVQLVESGGGFVQAGGSLRLSSAASGINFYRKTMGWYRQAPGKERELVASISRGGSTYYADSVKGRFTISRDNAKNTVYLQMNILKPEDTAVYYCSTSGQQYYSRNFDYWGQGTQVTVSS,low polyreactivity
8,QVQLVESGGGFVQSGGSLRLSCAASGITFRYYTMGWYRQPPRKERELDAVISWSGGSTYYADSVKGRFTISRDNAKNTVYLQRNSLKPEDTAVYYCAAVRRISRYDYWGQGTQVTVSS,high polyreactivity
9,QVQLVESGGGIDQAGGSLRLSCAASGGTFFSNAMGWYRQAPGKERELVAGITSGGRTYYADSVKGRFTISRDNAKNTVYLQMNSLKPEDTAVDYCATRSRRTYYYYGAEGYWGQGTQVTVSS,high polyreactivity
10,QVQLVESGGGILQAGGSLRLSCAASGFTFLGYVMGWYRQSPGKEREIVADITESGGRTYYADSVKGRFTISRDNAKNTVFLQMNSLKPEDTAVYYCAAELSYWGYYYSFDYWGHGTQVTVSS,low polyreactivity
11,QVQLVESGGGIVPAGGSLRLSCAASGRSFYNYAMGWYRQAPGKERELVASISGIGGTTYYADSVKGRFTISRDNAKNTVYFQMNSLKPEDTAVYYCAARLYNWRRYGYWGQRTQVTVSS,high polyreactivity
12,QVQLVESGGGIVQAGGSLLLSCAASGRIFEKYALGWYRQAPGKDRELVAAISYSGGSTYYADSVKGSFTSSRDKAKNTVYFQMNSLKPEDTAVYYCARYSRTQAYDYWGQGTQVTVSS,high polyreactivity
13,QVQLVESGGGIVQAGGSLRFSCAASGFTFWKYTRGWYRQAPGKERELVAAINGGGGDTYADSVKGRFTISRDNAKNTVYLQMNSLKPEDTAVYYCAARYGTGTTWVQPTEMDYWGQGTQVTVSL,low polyreactivity
14,QVQLVESGGGIVQAGGSLRISCAASGRIFSTYAMGWYRQAPGKERELVAAINKIGGSTYYADSVKGRFTISRDNAKNTVYLQMNSLKPEDTAVYYCAADAPYYPVRRYYYWGQGTQVTVSS,low polyreactivity
15,QVQLVESGGGIVQAGGSLRLAVLPPDLPSTLNDMGWSTQAPGKERELVAAITRGGSTNSADSVKGRFTISRDNAKNTVYLQMNILKPEDTAVYYCDKDSLVDHVGGYDYWGQATQVTVSS,low polyreactivity
16,QVQLVESGGGIVQAGGSLRLCCAASGRSFSHYAMGWSRQAPGKDRELVATITRNGGITYYADSVKWRFTISRDNAKNTVYLQMNSLKPEDTAVYYCAAGRYYNLRATHGYWGQATQVTVSS,low polyreactivity
17,QVQLVESGGGIVQAGGSLRLICAASGSTFYPYAMGWYRQAPGKERELVAGISWSGGSTYYADSVKGRFTISRDNAKYTVYLQMNSLKPEDTAVYYCAVDVYWSVIYDYWGQGTQVTVSS,low polyreactivity
18,QVQLVESGGGIVQAGGSLRLNSAASGITINGNAMGWYRQEPGKERQLVAAISRSSSRTYYADSVKGRFTISRDNAKNTVYLQKNSLKQEDTAVYYCAALSLNVDAPSYGYWGQGTQVTVSS,high polyreactivity
19,QVQLVESGGGIVQAGGSLRLSCAAAGSNFTVYVMGWYRQAPGKERELVARISSDGSTNYADSVKGRFTISRDNAKNSVFLQMNSLKPEDTAVYYCNADFPFSGRRPWYNAYDYWGQGTQVTVSS,low polyreactivity
20,QVQLVESGGGIVQAGGSLRLSCAASGFIFDAYAMGWYRQAPGKERELVAGISIGGRTIYADSVKGRFTISRDNAKNTVYLQMNSLKPEDTAVYYCAARNYRYYYGSYYRGPITNYEYWGQGTQVTVSS,low polyreactivity
21,QVQLVESGGGIVQAGGSLRLSCAASGFIFDQNAMGWYRQAPGKERELVAAISKRGGSTYYADSVKGRFTISRDNAKNTVYLQMNSLKREDTAVYYCATRSWGPYYYGYNHWGQGTQVTVSS,high polyreactivity
